Key:
Test in all cases: SPR
[1] = target: GST-Cul5^NTD Leu52Ala (mouse, UniProt Q9D5V5 1-384, Leu52Ala | Val341Arg | Leu345Asp)
[2] = target: GST-Cul5^NTD His48Ala (mouse, UniProt Q9D5V5 1-384, His48Ala | Val341Arg | Leu345Asp)
[3] = target: GST-Cul5^NTD Phe41Ala (mouse, UniProt Q9D5V5 1-384, Phe41Ala | Val341Arg | Leu345Asp)
[4] = target: GST-Cul5^NTD Gln113Ala (mouse, UniProt Q9D5V5 1-384, Gln113Ala | Val341Arg | Leu345Asp)
[5] = target: GST-Cul5^NTD (wild type) (mouse, UniProt Q9D5V5 1-384, Val341Arg | Leu345Asp)
Chain of GST-Cul5^NTD (wild type) (Q9D5V5 1-384 V341R/L345D): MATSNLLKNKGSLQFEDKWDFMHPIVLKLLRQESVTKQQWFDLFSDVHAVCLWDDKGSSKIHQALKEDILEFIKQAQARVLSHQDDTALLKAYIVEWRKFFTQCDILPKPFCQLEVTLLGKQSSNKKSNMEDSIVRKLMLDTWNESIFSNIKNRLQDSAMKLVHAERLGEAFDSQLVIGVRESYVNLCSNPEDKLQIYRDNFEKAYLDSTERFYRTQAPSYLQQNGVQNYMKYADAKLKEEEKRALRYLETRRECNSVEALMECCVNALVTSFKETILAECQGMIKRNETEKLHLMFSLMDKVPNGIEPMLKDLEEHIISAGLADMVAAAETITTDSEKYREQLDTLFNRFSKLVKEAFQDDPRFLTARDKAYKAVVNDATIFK

Chain of GST-Cul5^NTD His48Ala (Q9D5V5 1-384 H48A/V341R/L345D): as the sequence (Q9D5V5 1-384 V341R/L345D) above, with H48A counted along it
Chain of GST-Cul5^NTD Gln113Ala (Q9D5V5 1-384 Q113A/V341R/L345D): as the sequence (Q9D5V5 1-384 V341R/L345D) above, with Q113A counted along it
Chain of GST-Cul5^NTD Leu52Ala (Q9D5V5 1-384 L52A/V341R/L345D): as the sequence (Q9D5V5 1-384 V341R/L345D) above, with L52A counted along it
Chain of GST-Cul5^NTD Phe41Ala (Q9D5V5 1-384 F41A/V341R/L345D): as the sequence (Q9D5V5 1-384 V341R/L345D) above, with F41A counted along it

- binding result [1]: binds
- fold loss in affinity against wild-type Cul5 [2]: 50 fold
- fold loss in affinity against wild-type Cul5 [3]: 50 fold
- binding result [4]: binds
- binding result [5]: binds
B1: ASB9–Elongin B/C ternary complex (wild type) (complex)
chain 1: SDWSPMHEAAIHGHQLSLRNLISQGWAVNIITADHVSPLHEACLGGHLSCVKILLKHGAQVNGVTADWHTPLFNACVSGSWDCVNLLLQHGASVQPESDLASPIHEAARRGHVECVNSLIAYGGNIDHKISHLGTPLYLACENQQRACVKKLLESGADVNQGKGQDSPLHAVARTASEELACLLMDFGADTQAKNAEGKRPVELVPPESPLAQLFLEREGPPSLMQLCRLRIRKCFGIQQHHKITKLVLPEDLKQFLLHL
chain 2: […]
chain 3: […]

Reference: publication PMC3779351 (Journal of Molecular Biology, 2013)
